The nature of the data set: collision cross section of modified peptide (TIMS, N2, iRT-aligned); higher = larger / more extended gas-phase ion. Here is the method:
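1/K0 was aligned run-wise to spiked iRT peptides and converted to CCS in N2 (Mason-Schamp). Values are the mean of 1-3 technical replicates for the most abundant feature at each charge state.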

Where [1] appears, read: charge state: 2, modification: Trimethyl (K).
[2] abbreviates: charge state: 3, modification: Trimethyl (K).
The mark [3] stands for this setting: charge state: 2, modification: hydroxyisobutyryl.
Setting [4] is: charge state: 2, modification: Nitro (Y).
The mark [5] stands for this setting: charge state: 2, modification: Phospho (Y).
Setting [6] is: charge state: 2, modification: Acetyl (K).
[7] abbreviates: charge state: 2, modification: Biotin.
Where [8] appears, read: charge state: 2, modification: Butyryl.
The mark [9] stands for this setting: charge state: 2, modification: Crotonyl.
Where [10] appears, read: charge state: 2, modification: Dimethyl (K).
Setting [11] is: charge state: 3, modification: Dimethyl (K).
The mark [12] stands for this setting: charge state: 2, modification: Formyl.
[13] abbreviates: charge state: 2, modification: Glutarylation.
[14] abbreviates: charge state: 2, modification: GlyGly (K).
Setting [15] is: charge state: 3, modification: GlyGly (K).
Where [16] appears, read: charge state: 2, modification: Malonyl.
Where [17] appears, read: charge state: 2, modification: Methyl (K).
[18] abbreviates: charge state: 3, modification: Methyl (K).
Setting [19] is: charge state: 2, modification: Propionyl.
[20] abbreviates: charge state: 2, modification: Succinyl.
Where [21] appears, read: charge state: 3, modification: Succinyl.
[22] abbreviates: charge state: 3, modification: Acetyl (K).
[23] abbreviates: charge state: 3, modification: Butyryl.
Setting [24] is: charge state: 3, modification: Glutarylation.
Setting [25] is: charge state: 3, modification: hydroxyisobutyryl.
Where [26] appears, read: charge state: 3, modification: Nitro (Y).
The mark [27] stands for this setting: charge state: 3, modification: Citrullination (R).
The mark [28] stands for this setting: charge state: 3, modification: Methyl (R).
Where [29] appears, read: charge state: 3, modification: Crotonyl.
Where [30] appears, read: charge state: 3, modification: Formyl.

± gives the standard deviation.

As to “DKALPLEAEVAPVK [_DK(Trimethyl (K))ALPLEAEVAPVK_]”, the collision cross section runs as follows: under setting [1], 415.71 ± 1.1 Å²; under setting [2], 491.82 ± 2.4 Å².

Sequence “DKALPLEAEVAPVK [_DK(hydroxyisobutyryl)ALPLEAEVAPVK_]” displayed a collision cross section under setting [3] of 422.26 ± 0.83 Å².

The sequence DLATVYVDVLK [_DLATVY(Nitro (Y))VDVLK_] gave a collision cross section under setting [4] of 387.27 ± 0.74 Å².

Under setting [4], DLEEAEEYK [_DLEEAEEY(Nitro (Y))K_] displayed a collision cross section of 368.75 ± 2.1 Å².

For the sequence DLEEAEEYK [_DLEEAEEY(Phospho (Y))K_], the collision cross section under setting [5] is 369.49 ± 0.064 Å².

Consider “DLGKFQVATDALK [_DLGK(Acetyl (K))FQVATDALK_]”, for which the collision cross section under setting [6] is on record as 405.65 ± 0.97 Å².

DLGKFQVATDALK [_DLGK(Biotin)FQVATDALK_] showed a collision cross section under setting [7] of 425.47 ± 0.89 Å².

On to “DLGKFQVATDALK [_DLGK(Butyryl)FQVATDALK_]”, for which the collision cross section under setting [8] is listed as 411.4 ± 0.85 Å².

The sequence “DLGKFQVATDALK [_DLGK(Crotonyl)FQVATDALK_]” came in with a collision cross section under setting [9] of 409.72 ± 0.55 Å².

On to “DLGKFQVATDALK [_DLGK(Dimethyl (K))FQVATDALK_]”, for which the collision cross section by setting is: under setting [10], 400.58 ± 0.77 Å²; under setting [11], 478.59 ± 14 Å².

DLGKFQVATDALK [_DLGK(Formyl)FQVATDALK_] yielded a collision cross section under setting [12] of 403.92 ± 0.55 Å².

Turning to “DLGKFQVATDALK [_DLGK(Gluratylation)FQVATDALK_]”, the collision cross section under setting [13] was 414.3 ± 0.6 Å².

On to “DLGKFQVATDALK [_DLGK(GlyGly (K))FQVATDALK_]”, for which the collision cross section is 422.76 ± 0.97 Å² under setting [14] and 498.2 ± 1.1 Å² under setting [15].

Sequence “DLGKFQVATDALK [_DLGK(Malonyl)FQVATDALK_]” yielded a collision cross section under setting [16] of 406.38 ± 0.61 Å².

Take “DLGKFQVATDALK [_DLGK(Methyl (K))FQVATDALK_]”: the collision cross section was 399.05 ± 1.1 Å² under setting [17] and 491.01 ± 3.2 Å² under setting [18].

As to “DLGKFQVATDALK [_DLGK(Propionyl)FQVATDALK_]”, the collision cross section under setting [19] is reported as 407.94 Å².

Sequence “DLGKFQVATDALK [_DLGK(Succinyl)FQVATDALK_]” showed a collision cross section under setting [20] of 409.86 ± 0.37 Å² and a collision cross section under setting [21] of 478.58 Å².

Turning to “DLGKFQVATDALK [_DLGK(Trimethyl (K))FQVATDALK_]”, the collision cross section was 414.1 ± 0.6 Å² under setting [1] and 492.6 ± 1.8 Å² under setting [2].

For “DLGKFQVATDALK [_DLGK(hydroxyisobutyryl)FQVATDALK_]”, the collision cross section under setting [3] amounted to 409.13 ± 0.55 Å².

As for “DLSTVEALQNLKNLK [_DLSTVEALQNLK(Acetyl (K))NLK_]”, the collision cross section is, setting by setting: under setting [6], 475.96 ± 3.5 Å²; under setting [22], 544.02 Å².

On to “DLSTVEALQNLKNLK [_DLSTVEALQNLK(Butyryl)NLK_]”, for which the collision cross section is, setting by setting: under setting [8], 484.29 ± 0.35 Å²; under setting [23], 550.2 Å².

Under setting [9], “DLSTVEALQNLKNLK [_DLSTVEALQNLK(Crotonyl)NLK_]” yielded a collision cross section of 484.33 ± 1.1 Å².

On to “DLSTVEALQNLKNLK [_DLSTVEALQNLK(Dimethyl (K))NLK_]”, for which the collision cross section under setting [10] turned out to be 476.15 ± 1.7 Å² and the collision cross section under setting [11] stood at 513.29 ± 0.57 Å².

Under setting [12], “DLSTVEALQNLKNLK [_DLSTVEALQNLK(Formyl)NLK_]” came in with a collision cross section of 474.81 ± 0.7 Å².

As for “DLSTVEALQNLKNLK [_DLSTVEALQNLK(Gluratylation)NLK_]”, the collision cross section under setting [24] was found to be 545.2 Å².

“DLSTVEALQNLKNLK [_DLSTVEALQNLK(GlyGly (K))NLK_]” displayed a collision cross section under setting [14] of 473.91 ± 4.8 Å² and a collision cross section under setting [15] of 514.39 ± 5.7 Å².

Sequence “DLSTVEALQNLKNLK [_DLSTVEALQNLK(Malonyl)NLK_]” displayed a collision cross section under setting [16] of 481.83 ± 1.5 Å².

In the case of “DLSTVEALQNLKNLK [_DLSTVEALQNLK(Methyl (K))NLK_]”, the collision cross section is listed as 475.78 ± 3.5 Å² under setting [17] and 545.72 ± 1.2 Å² under setting [18].

Take “DLSTVEALQNLKNLK [_DLSTVEALQNLK(Succinyl)NLK_]”: the collision cross section is reported as 483.86 ± 0.78 Å² under setting [20] and 537.21 Å² under setting [21].

Take “DLSTVEALQNLKNLK [_DLSTVEALQNLK(Trimethyl (K))NLK_]”: the collision cross section by setting is: under setting [1], 478.82 ± 1.1 Å²; under setting [2], 501.71 ± 2.5 Å².

As for “DLSTVEALQNLKNLK [_DLSTVEALQNLK(hydroxyisobutyryl)NLK_]”, the collision cross section reads like this: under setting [3], 486.36 ± 1.3 Å²; under setting [25], 549.84 ± 1.8 Å².

As for “DLTTAGAVTQCYR [_DLTTAGAVTQCY(Nitro (Y))R_]”, the collision cross section was 399.32 ± 0.8 Å² under setting [4] and 462.24 Å² under setting [26].

Take “DLTTAGAVTQCYR [_DLTTAGAVTQCY(Phospho (Y))R_]”: the collision cross section under setting [5] is recorded as 405.28 ± 0.061 Å².

In the case of DLYEPSHGAK [_DLY(Nitro (Y))EPSHGAK_], the collision cross section stood at 364.04 ± 0.94 Å² under setting [4] and 435.87 ± 1.2 Å² under setting [26].

With DLYEPSHGAK [_DLY(Phospho (Y))EPSHGAK_], the collision cross section under setting [5] turned out to be 375.68 ± 0.063 Å².

The sequence “DNNNSNNRGSYNR [_DNNNSNNR(Citrullination (R))GSYNR_]” had a collision cross section under setting [27] of 460.73 ± 2.9 Å².

“DNNNSNNRGSYNR [_DNNNSNNR(Methyl (R))GSYNR_]” showed a collision cross section under setting [28] of 460.8 ± 2.4 Å².

Regarding “DSINFLDHINGKK [_DSINFLDHINGK(Acetyl (K))K_]”, the collision cross section under setting [22] came to 470.59 Å².

Regarding “DSINFLDHINGKK [_DSINFLDHINGK(Butyryl)K_]”, the collision cross section under setting [23] is 471.81 Å².

In the case of “DSINFLDHINGKK [_DSINFLDHINGK(Crotonyl)K_]”, the collision cross section under setting [29] is 467.81 Å².

DSINFLDHINGKK [_DSINFLDHINGK(Formyl)K_]: the collision cross section under setting [30] was 468.04 Å².

For the sequence “DSINFLDHINGKK [_DSINFLDHINGK(Gluratylation)K_]”, under setting [24], the collision cross section came out at 460.36 ± 1.7 Å².

Sequence “DSINFLDHINGKK [_DSINFLDHINGK(GlyGly (K))K_]” gave a collision cross section under setting [15] of 464.41 ± 1.6 Å².

Turning to “DSINFLDHINGKK [_DSINFLDHINGK(Methyl (K))K_]”, the collision cross section under setting [18] is on record as 461.65 ± 2.7 Å².

Turning to “DSINFLDHINGKK [_DSINFLDHINGK(Succinyl)K_]”, under setting [21], the collision cross section was determined as 461.79 Å².

“DSINFLDHINGKK [_DSINFLDHINGK(hydroxyisobutyryl)K_]” had a collision cross section under setting [25] of 468.17 ± 2.7 Å².

Regarding “DSLGVSFPEELACK [_DSLGVS(HexNAc (ST))FPEELACK_]”, where the note is “charge state: 2, modification: HexNAc (ST)”, the collision cross section is given as 437.05 Å².

Turning to “DSRGGGGNFGPGPGSNFR [_DSR(Citrullination (R))GGGGNFGPGPGSNFR_]”, the collision cross section under setting [27] is 470.03 ± 5.1 Å².

Sequence “DSRGGGGNFGPGPGSNFR [_DSR(Methyl (R))GGGGNFGPGPGSNFR_]” came in with a collision cross section under setting [28] of 480.39 ± 3.1 Å².

Regarding “DSSPTTNSKLSALQR [_DSSPTTNSK(Acetyl (K))LSALQR_]”, the collision cross section by setting is: under setting [6], 430.6 ± 0.81 Å²; under setting [22], 495.74 ± 2.2 Å².

Regarding “DSSPTTNSKLSALQR [_DSSPTTNSK(Biotin)LSALQR_]”, the collision cross section under setting [7] worked out at 447.16 ± 2.3 Å² and the collision cross section (charge state: 3, modification: Biotin) was found to be 519.36 ± 0.34 Å².

For “DSSPTTNSKLSALQR [_DSSPTTNSK(Butyryl)LSALQR_]”, the collision cross section turned out to be 435.34 ± 0.76 Å² under setting [8] and 499.02 ± 1.9 Å² under setting [23].

In the case of “DSSPTTNSKLSALQR [_DSSPTTNSK(Crotonyl)LSALQR_]”, the collision cross section by setting is: under setting [9], 436.18 ± 0.54 Å²; under setting [29], 499.72 ± 1.3 Å².

The sequence “DSSPTTNSKLSALQR [_DSSPTTNSK(Dimethyl (K))LSALQR_]” yielded a collision cross section under setting [10] of 423.14 ± 1.1 Å² and a collision cross section under setting [11] of 472.53 ± 1.6 Å².

Regarding “DSSPTTNSKLSALQR [_DSSPTTNSK(Formyl)LSALQR_]”, the collision cross section by setting is: under setting [12], 427.17 ± 1.8 Å²; under setting [30], 491.37 ± 1.3 Å².

As to “DSSPTTNSKLSALQR [_DSSPTTNSK(Gluratylation)LSALQR_]”, the collision cross section is, setting by setting: under setting [13], 431.44 ± 1.5 Å²; under setting [24], 500.2 ± 1 Å².

For “DSSPTTNSKLSALQR [_DSSPTTNSK(GlyGly (K))LSALQR_]”, the collision cross section reads like this: under setting [14], 434.5 ± 1.6 Å²; under setting [15], 501.52 ± 0.79 Å².

As to “DSSPTTNSKLSALQR [_DSSPTTNSK(Malonyl)LSALQR_]”, the collision cross section amounted to 424.62 ± 0.65 Å² under setting [16] and 494.68 ± 0.88 Å² (charge state: 3, modification: Malonyl).

As for “DSSPTTNSKLSALQR [_DSSPTTNSK(Methyl (K))LSALQR_]”, the collision cross section is listed as 419.3 Å² under setting [17] and 475.79 ± 3.5 Å² under setting [18].

In the case of “DSSPTTNSKLSALQR [_DSSPTTNSK(Propionyl)LSALQR_]”, the collision cross section runs as follows: under setting [19], 430.82 ± 2.1 Å²; (charge state: 3, modification: Propionyl) 498.95 Å².

The values above are taken from the supplement of paper PMC10598134.
